According to patent US20140087995A1 (published 2014):
Numbered stars: 1 amine (or outer) side, 2 acyl side, 3 side chain; on linkers, the order of the positions; unused ones are H or OH. Bridge positions count the residues as written; N and C are the ends. Side chains are listed from the residue outwards. Ends that are not written are not given here. * marks the point of attachment. C20 diacid = O=C(O)CCCCCCCCCCCCCCCCCCC(=O)*; C18 diacid = O=C(O)CCCCCCCCCCCCCCCCC(=O)*; C16 diacid = O=C(O)CCCCCCCCCCCCCCC(=O)*; γGlu = O=C(O)[C@H](CCC(=O)[*:2])N[*:1]; AEEA = NCCOCCOCC(=O)O

B1: N^ε1-[2-[2-[2-[[(4S)-4-carboxy-4-(19-carboxynonadecanoylamino)butanoyl]amino]ethoxy]ethoxy]acetyl]-[Lys14,Arg17,Pro21,Pro27,Pro31]-h-amylin (peptide)
peptide: K([AEEA-γGlu-C20 diacid])CNTATCATQRLAKFLRHSSPNFGAIPSSTPVGSNTY-NH2
modifications: disulfide 2-7; N-terminus assumed
SMILES: CC[C@H](C)[C@H](NC(=O)[C@H](C)NC(=O)CNC(=O)[C@H](Cc1ccccc1)NC(=O)[C@H](CC(N)=O)NC(=O)[C@@H]1CCCN1C(=O)[C@H](CO)NC(=O)[C@H](CO)NC(=O)[C@H](Cc1c[nH]cn1)NC(=O)[C@H](CCCNC(=N)N)NC(=O)[C@H](CC(C)C)NC(=O)[C@H](Cc1ccccc1)NC(=O)[C@H](CCCCN)NC(=O)[C@H](C)NC(=O)[C@H](CC(C)C)NC(=O)[C@H](CCCNC(=N)N)NC(=O)[C@H](CCC(N)=O)NC(=O)[C@@H](NC(=O)[C@H](C)NC(=O)[C@@H]1CSSC[C@H](NC(=O)[C@@H](N)CCCCNC(=O)COCCOCCNC(=O)CC[C@H](NC(=O)CCCCCCCCCCCCCCCCCCC(=O)O)C(=O)O)C(=O)N[C@@H](CC(N)=O)C(=O)N[C@@H]([C@@H](C)O)C(=O)N[C@@H](C)C(=O)N[C@@H]([C@@H](C)O)C(=O)N1)[C@@H](C)O)C(=O)N1CCC[C@H]1C(=O)N[C@@H](CO)C(=O)N[C@@H](CO)C(=O)N[C@H](C(=O)N1CCC[C@H]1C(=O)N[C@H](C(=O)NCC(=O)N[C@@H](CO)C(=O)N[C@@H](CC(N)=O)C(=O)N[C@H](C(=O)N[C@@H](Cc1ccc(O)cc1)C(N)=O)[C@@H](C)O)C(C)C)[C@@H](C)O
notes: also called 14K, 17R, 21P, 27P, 31P
B2: N^ε1-[(4S)-4-carboxy-4-(19-carboxynonadecanoylamino)butanoyl]-[Ala14,Arg17,Pro21,Pro27,His34]-h-amylin (peptide)
peptide: K([γGlu-C20 diacid])CNTATCATQRLAAFLRHSSPNFGAIPSSTNVGHNTY-NH2
modifications: disulfide 2-7; N-terminus assumed
SMILES: CC[C@H](C)[C@H](NC(=O)[C@H](C)NC(=O)CNC(=O)[C@H](Cc1ccccc1)NC(=O)[C@H](CC(N)=O)NC(=O)[C@@H]1CCCN1C(=O)[C@H](CO)NC(=O)[C@H](CO)NC(=O)[C@H](Cc1c[nH]cn1)NC(=O)[C@H](CCCNC(=N)N)NC(=O)[C@H](CC(C)C)NC(=O)[C@H](Cc1ccccc1)NC(=O)[C@H](C)NC(=O)[C@H](C)NC(=O)[C@H](CC(C)C)NC(=O)[C@H](CCCNC(=N)N)NC(=O)[C@H](CCC(N)=O)NC(=O)[C@@H](NC(=O)[C@H](C)NC(=O)[C@@H]1CSSC[C@H](NC(=O)[C@@H](N)CCCCNC(=O)CC[C@H](NC(=O)CCCCCCCCCCCCCCCCCCC(=O)O)C(=O)O)C(=O)N[C@@H](CC(N)=O)C(=O)N[C@@H]([C@@H](C)O)C(=O)N[C@@H](C)C(=O)N[C@@H]([C@@H](C)O)C(=O)N1)[C@@H](C)O)C(=O)N1CCC[C@H]1C(=O)N[C@@H](CO)C(=O)N[C@@H](CO)C(=O)N[C@H](C(=O)N[C@@H](CC(N)=O)C(=O)N[C@H](C(=O)NCC(=O)N[C@@H](Cc1c[nH]cn1)C(=O)N[C@@H](CC(N)=O)C(=O)N[C@H](C(=O)N[C@@H](Cc1ccc(O)cc1)C(N)=O)[C@@H](C)O)C(C)C)[C@@H](C)O
notes: also called 14A, 17R, 21P, 27P, 34H
B3: N^ε1-[2-[2-[2-[[(4S)-4-carboxy-4-(19-carboxynonadecanoylamino)butanoyl]amino]ethoxy]ethoxy]acetyl]-[Thr14,Arg17,Pro21,Pro27,Pro31]-h-amylin (peptide)
peptide: K([AEEA-γGlu-C20 diacid])CNTATCATQRLATFLRHSSPNFGAIPSSTPVGSNTY-NH2
modifications: disulfide 2-7; N-terminus assumed
SMILES: CC[C@H](C)[C@H](NC(=O)[C@H](C)NC(=O)CNC(=O)[C@H](Cc1ccccc1)NC(=O)[C@H](CC(N)=O)NC(=O)[C@@H]1CCCN1C(=O)[C@H](CO)NC(=O)[C@H](CO)NC(=O)[C@H](Cc1c[nH]cn1)NC(=O)[C@H](CCCNC(=N)N)NC(=O)[C@H](CC(C)C)NC(=O)[C@H](Cc1ccccc1)NC(=O)[C@@H](NC(=O)[C@H](C)NC(=O)[C@H](CC(C)C)NC(=O)[C@H](CCCNC(=N)N)NC(=O)[C@H](CCC(N)=O)NC(=O)[C@@H](NC(=O)[C@H](C)NC(=O)[C@@H]1CSSC[C@H](NC(=O)[C@@H](N)CCCCNC(=O)COCCOCCNC(=O)CC[C@H](NC(=O)CCCCCCCCCCCCCCCCCCC(=O)O)C(=O)O)C(=O)N[C@@H](CC(N)=O)C(=O)N[C@@H]([C@@H](C)O)C(=O)N[C@@H](C)C(=O)N[C@@H]([C@@H](C)O)C(=O)N1)[C@@H](C)O)[C@@H](C)O)C(=O)N1CCC[C@H]1C(=O)N[C@@H](CO)C(=O)N[C@@H](CO)C(=O)N[C@H](C(=O)N1CCC[C@H]1C(=O)N[C@H](C(=O)NCC(=O)N[C@@H](CO)C(=O)N[C@@H](CC(N)=O)C(=O)N[C@H](C(=O)N[C@@H](Cc1ccc(O)cc1)C(N)=O)[C@@H](C)O)C(C)C)[C@@H](C)O
notes: also called 14T, 17R, 21P, 27P, 31P
B4: N^ε1-[2-[2-[2-[[(4S)-4-carboxy-4-(19-carboxynonadecanoylamino)butanoyl]amino]ethoxy]ethoxy]acetyl]-[Ser14,Arg17,Pro21,Pro27,Pro31]-h-amylin (peptide)
peptide: K([AEEA-γGlu-C20 diacid])CNTATCATQRLASFLRHSSPNFGAIPSSTPVGSNTY-NH2
modifications: disulfide 2-7; N-terminus assumed
SMILES: CC[C@H](C)[C@H](NC(=O)[C@H](C)NC(=O)CNC(=O)[C@H](Cc1ccccc1)NC(=O)[C@H](CC(N)=O)NC(=O)[C@@H]1CCCN1C(=O)[C@H](CO)NC(=O)[C@H](CO)NC(=O)[C@H](Cc1c[nH]cn1)NC(=O)[C@H](CCCNC(=N)N)NC(=O)[C@H](CC(C)C)NC(=O)[C@H](Cc1ccccc1)NC(=O)[C@H](CO)NC(=O)[C@H](C)NC(=O)[C@H](CC(C)C)NC(=O)[C@H](CCCNC(=N)N)NC(=O)[C@H](CCC(N)=O)NC(=O)[C@@H](NC(=O)[C@H](C)NC(=O)[C@@H]1CSSC[C@H](NC(=O)[C@@H](N)CCCCNC(=O)COCCOCCNC(=O)CC[C@H](NC(=O)CCCCCCCCCCCCCCCCCCC(=O)O)C(=O)O)C(=O)N[C@@H](CC(N)=O)C(=O)N[C@@H]([C@@H](C)O)C(=O)N[C@@H](C)C(=O)N[C@@H]([C@@H](C)O)C(=O)N1)[C@@H](C)O)C(=O)N1CCC[C@H]1C(=O)N[C@@H](CO)C(=O)N[C@@H](CO)C(=O)N[C@H](C(=O)N1CCC[C@H]1C(=O)N[C@H](C(=O)NCC(=O)N[C@@H](CO)C(=O)N[C@@H](CC(N)=O)C(=O)N[C@H](C(=O)N[C@@H](Cc1ccc(O)cc1)C(N)=O)[C@@H](C)O)C(C)C)[C@@H](C)O
notes: also called 14S, 17R, 21P, 27P, 31P
B5: N^ε1-[(4S)-4-carboxy-4-(15-carboxypentadecanoylamino)butanoyl]-[Arg17,Pro21,Pro27,His34]-h-amylin (peptide)
peptide: K([γGlu-C16 diacid])CNTATCATQRLANFLRHSSPNFGAIPSSTNVGHNTY-NH2
modifications: disulfide 2-7; N-terminus assumed
SMILES: CC[C@H](C)[C@H](NC(=O)[C@H](C)NC(=O)CNC(=O)[C@H](Cc1ccccc1)NC(=O)[C@H](CC(N)=O)NC(=O)[C@@H]1CCCN1C(=O)[C@H](CO)NC(=O)[C@H](CO)NC(=O)[C@H](Cc1c[nH]cn1)NC(=O)[C@H](CCCNC(=N)N)NC(=O)[C@H](CC(C)C)NC(=O)[C@H](Cc1ccccc1)NC(=O)[C@H](CC(N)=O)NC(=O)[C@H](C)NC(=O)[C@H](CC(C)C)NC(=O)[C@H](CCCNC(=N)N)NC(=O)[C@H](CCC(N)=O)NC(=O)[C@@H](NC(=O)[C@H](C)NC(=O)[C@@H]1CSSC[C@H](NC(=O)[C@@H](N)CCCCNC(=O)CC[C@H](NC(=O)CCCCCCCCCCCCCCC(=O)O)C(=O)O)C(=O)N[C@@H](CC(N)=O)C(=O)N[C@@H]([C@@H](C)O)C(=O)N[C@@H](C)C(=O)N[C@@H]([C@@H](C)O)C(=O)N1)[C@@H](C)O)C(=O)N1CCC[C@H]1C(=O)N[C@@H](CO)C(=O)N[C@@H](CO)C(=O)N[C@H](C(=O)N[C@@H](CC(N)=O)C(=O)N[C@H](C(=O)NCC(=O)N[C@@H](Cc1c[nH]cn1)C(=O)N[C@@H](CC(N)=O)C(=O)N[C@H](C(=O)N[C@@H](Cc1ccc(O)cc1)C(N)=O)[C@@H](C)O)C(C)C)[C@@H](C)O
notes: also called 17R, 21P, 27P, 34H
B6: N^ε1-[(4S)-4-carboxy-4-(17-carboxyheptadecanoylamino)butanoyl]-[Arg17,Pro21,Pro27,His34]-h-amylin (peptide)
peptide: K([γGlu-C18 diacid])CNTATCATQRLANFLRHSSPNFGAIPSSTNVGHNTY-NH2
modifications: disulfide 2-7; N-terminus assumed
SMILES: CC[C@H](C)[C@H](NC(=O)[C@H](C)NC(=O)CNC(=O)[C@H](Cc1ccccc1)NC(=O)[C@H](CC(N)=O)NC(=O)[C@@H]1CCCN1C(=O)[C@H](CO)NC(=O)[C@H](CO)NC(=O)[C@H](Cc1c[nH]cn1)NC(=O)[C@H](CCCNC(=N)N)NC(=O)[C@H](CC(C)C)NC(=O)[C@H](Cc1ccccc1)NC(=O)[C@H](CC(N)=O)NC(=O)[C@H](C)NC(=O)[C@H](CC(C)C)NC(=O)[C@H](CCCNC(=N)N)NC(=O)[C@H](CCC(N)=O)NC(=O)[C@@H](NC(=O)[C@H](C)NC(=O)[C@@H]1CSSC[C@H](NC(=O)[C@@H](N)CCCCNC(=O)CC[C@H](NC(=O)CCCCCCCCCCCCCCCCC(=O)O)C(=O)O)C(=O)N[C@@H](CC(N)=O)C(=O)N[C@@H]([C@@H](C)O)C(=O)N[C@@H](C)C(=O)N[C@@H]([C@@H](C)O)C(=O)N1)[C@@H](C)O)C(=O)N1CCC[C@H]1C(=O)N[C@@H](CO)C(=O)N[C@@H](CO)C(=O)N[C@H](C(=O)N[C@@H](CC(N)=O)C(=O)N[C@H](C(=O)NCC(=O)N[C@@H](Cc1c[nH]cn1)C(=O)N[C@@H](CC(N)=O)C(=O)N[C@H](C(=O)N[C@@H](Cc1ccc(O)cc1)C(N)=O)[C@@H](C)O)C(C)C)[C@@H](C)O
notes: as for B5

Biological target: T1, human amylin receptor (human, UniProt P30988 25-474; O60896 24-148, limits assumed)
T1 construct: whole, on cells; Calcitonin receptor plus RAMP-3 gives the amylin 3(a) receptor; membranes of Amylin 3(a)/CRE-luc cells were used; also called hAmylin-R; hAmylinR
T1 sequence (looked up) 1: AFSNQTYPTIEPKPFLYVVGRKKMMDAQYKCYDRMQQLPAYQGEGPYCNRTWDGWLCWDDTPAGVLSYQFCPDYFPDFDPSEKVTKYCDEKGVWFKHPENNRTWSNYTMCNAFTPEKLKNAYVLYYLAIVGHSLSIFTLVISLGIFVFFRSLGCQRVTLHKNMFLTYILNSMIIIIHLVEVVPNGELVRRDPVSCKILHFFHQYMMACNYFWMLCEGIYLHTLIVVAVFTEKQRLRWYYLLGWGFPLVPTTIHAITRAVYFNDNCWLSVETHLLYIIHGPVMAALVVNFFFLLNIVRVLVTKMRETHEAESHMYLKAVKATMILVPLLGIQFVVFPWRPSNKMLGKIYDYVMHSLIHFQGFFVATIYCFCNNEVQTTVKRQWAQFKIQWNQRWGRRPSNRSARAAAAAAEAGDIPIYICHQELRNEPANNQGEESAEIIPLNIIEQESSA
T1 sequence (looked up) 2: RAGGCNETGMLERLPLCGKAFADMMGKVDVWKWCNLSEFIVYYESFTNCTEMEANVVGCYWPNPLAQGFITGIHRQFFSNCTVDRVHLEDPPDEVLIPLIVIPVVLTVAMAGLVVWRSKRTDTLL
Test: SPA competition binding, displacement of 125I-rat amylin from membranes with human amylin 3(a) receptor (Assay V)
How it was run: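 Membranes from BHK Amylin 3(a)/CRE-luc cells (35 ng/μL final) were mixed with SPA beads and test compounds in 50 mM Hepes pH 7.4 with 1 mM CaCl2, 5 mM MgCl₂, 0.1% OA and 0.02% Tween20. Incubation ran 120 min at 25° C with shaking; IC₅₀ came from one-site competition fitting.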

Going from B1 to B2, the IC50 falls from 0.791 nM to 0.176 nM (4.5-fold). The second is the more potent here.

Going from B3 to B4, the IC50 falls from 0.666 nM to 0.104 nM (6.4-fold). The second is the more potent here.

First: B5
Second: B6
The IC50 of the first is 1.5-fold higher: 0.58 nM for the first, 0.382 nM for the second. The second is the more potent here.
